This passage reports stoichiometry N and percent sedimenting results from publication PMC2192027.

Test [1] deals with CLIMP-63 luminal fragment 268–459 (UniProt Q07065). The test is described as follows: AUC.
For test [2], the target named is recombinant full-length luminal segment of CLIMP-63 (amino acids 127–601) (UniProt Q07065). The test is described as follows: AUC.

Take “CLIMP-63 luminal fragment 268–459 (from UniProt Q07065 268-459) (domain or fragment)”: the stoichiometry N (as a rule, a count of units in the complex or per binding partner) in test [1] is 2.
Regarding “recombinant full-length luminal segment of CLIMP-63 (amino acids 127–601) (from UniProt Q07065 127-601) (domain or fragment)”, in test [2], the percent sedimenting at 26 S (1.5 M urea) is 80%, the percent sedimenting at 26 S (2 M urea) amounted to 50% and the percent sedimenting at 26 S (2.5 M urea) is 20%.
